{"source": "patent US20210071139A1", "assay_in_all_cases": "anti-TOX IP from EL4 nuclear extract, LC-MS/MS, MiST", "key": {"Sltm": {"target": "Sltm (UniProt Q8CH25)"}, "Wdhd1": {"target": "Wdhd1 (UniProt P59328)", "sequence (P59328 whole entry)": "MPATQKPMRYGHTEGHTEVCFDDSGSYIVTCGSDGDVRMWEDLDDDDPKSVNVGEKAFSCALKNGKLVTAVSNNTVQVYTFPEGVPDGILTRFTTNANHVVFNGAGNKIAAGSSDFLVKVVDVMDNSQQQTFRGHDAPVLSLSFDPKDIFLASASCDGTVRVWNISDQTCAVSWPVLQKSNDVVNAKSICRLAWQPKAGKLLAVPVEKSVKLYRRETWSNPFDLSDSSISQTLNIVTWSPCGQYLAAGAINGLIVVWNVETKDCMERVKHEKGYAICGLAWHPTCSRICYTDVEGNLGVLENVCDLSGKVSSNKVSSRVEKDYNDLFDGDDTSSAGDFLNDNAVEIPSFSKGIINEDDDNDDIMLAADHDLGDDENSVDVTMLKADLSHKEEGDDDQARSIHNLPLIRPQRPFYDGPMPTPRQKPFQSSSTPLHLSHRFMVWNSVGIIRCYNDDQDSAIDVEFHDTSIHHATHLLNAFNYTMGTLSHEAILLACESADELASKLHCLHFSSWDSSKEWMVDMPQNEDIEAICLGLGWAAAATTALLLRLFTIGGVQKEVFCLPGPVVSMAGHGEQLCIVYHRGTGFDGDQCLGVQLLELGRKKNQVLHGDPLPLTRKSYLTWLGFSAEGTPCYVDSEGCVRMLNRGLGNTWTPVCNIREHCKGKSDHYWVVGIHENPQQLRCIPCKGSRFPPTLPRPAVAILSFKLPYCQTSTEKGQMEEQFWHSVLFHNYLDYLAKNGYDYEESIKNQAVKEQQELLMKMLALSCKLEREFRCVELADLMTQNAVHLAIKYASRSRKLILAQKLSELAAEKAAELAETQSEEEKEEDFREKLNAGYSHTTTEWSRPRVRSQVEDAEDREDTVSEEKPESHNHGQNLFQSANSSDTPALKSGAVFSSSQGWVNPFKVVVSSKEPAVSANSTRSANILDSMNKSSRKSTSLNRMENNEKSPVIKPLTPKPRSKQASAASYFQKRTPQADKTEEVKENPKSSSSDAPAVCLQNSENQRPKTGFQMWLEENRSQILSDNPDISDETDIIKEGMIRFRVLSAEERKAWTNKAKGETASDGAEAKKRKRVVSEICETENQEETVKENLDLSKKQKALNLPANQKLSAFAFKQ"}, "Trip12": {"target": "Trip12 (UniProt G5E870)"}, "Eif5b": {"target": "Eif5b (UniProt Q05D44)"}, "Terf2ip": {"target": "Terf2ip (UniProt Q91VL8)"}, "Tsr1": {"target": "Tsr1 (UniProt Q5SWD9)"}, "Larp7": {"target": "Larp7 (UniProt Q05CL8)", "sequence (Q05CL8 whole entry)": "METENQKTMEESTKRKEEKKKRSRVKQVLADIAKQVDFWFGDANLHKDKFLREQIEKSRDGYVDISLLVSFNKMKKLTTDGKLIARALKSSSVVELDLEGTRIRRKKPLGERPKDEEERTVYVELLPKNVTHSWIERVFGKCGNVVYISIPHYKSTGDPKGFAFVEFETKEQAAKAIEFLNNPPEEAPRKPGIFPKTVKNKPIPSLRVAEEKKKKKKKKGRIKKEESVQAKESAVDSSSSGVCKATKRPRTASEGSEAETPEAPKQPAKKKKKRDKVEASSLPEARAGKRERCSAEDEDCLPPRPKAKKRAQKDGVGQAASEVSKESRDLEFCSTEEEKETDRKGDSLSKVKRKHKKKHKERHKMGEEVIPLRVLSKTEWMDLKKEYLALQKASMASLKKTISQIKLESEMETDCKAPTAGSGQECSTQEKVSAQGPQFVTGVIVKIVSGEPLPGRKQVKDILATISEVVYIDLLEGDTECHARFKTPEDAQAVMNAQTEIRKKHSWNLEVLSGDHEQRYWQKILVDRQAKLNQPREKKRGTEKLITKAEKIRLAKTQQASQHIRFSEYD"}, "Zfr": {"target": "Zfr (UniProt O88532)", "sequence (O88532 whole entry)": "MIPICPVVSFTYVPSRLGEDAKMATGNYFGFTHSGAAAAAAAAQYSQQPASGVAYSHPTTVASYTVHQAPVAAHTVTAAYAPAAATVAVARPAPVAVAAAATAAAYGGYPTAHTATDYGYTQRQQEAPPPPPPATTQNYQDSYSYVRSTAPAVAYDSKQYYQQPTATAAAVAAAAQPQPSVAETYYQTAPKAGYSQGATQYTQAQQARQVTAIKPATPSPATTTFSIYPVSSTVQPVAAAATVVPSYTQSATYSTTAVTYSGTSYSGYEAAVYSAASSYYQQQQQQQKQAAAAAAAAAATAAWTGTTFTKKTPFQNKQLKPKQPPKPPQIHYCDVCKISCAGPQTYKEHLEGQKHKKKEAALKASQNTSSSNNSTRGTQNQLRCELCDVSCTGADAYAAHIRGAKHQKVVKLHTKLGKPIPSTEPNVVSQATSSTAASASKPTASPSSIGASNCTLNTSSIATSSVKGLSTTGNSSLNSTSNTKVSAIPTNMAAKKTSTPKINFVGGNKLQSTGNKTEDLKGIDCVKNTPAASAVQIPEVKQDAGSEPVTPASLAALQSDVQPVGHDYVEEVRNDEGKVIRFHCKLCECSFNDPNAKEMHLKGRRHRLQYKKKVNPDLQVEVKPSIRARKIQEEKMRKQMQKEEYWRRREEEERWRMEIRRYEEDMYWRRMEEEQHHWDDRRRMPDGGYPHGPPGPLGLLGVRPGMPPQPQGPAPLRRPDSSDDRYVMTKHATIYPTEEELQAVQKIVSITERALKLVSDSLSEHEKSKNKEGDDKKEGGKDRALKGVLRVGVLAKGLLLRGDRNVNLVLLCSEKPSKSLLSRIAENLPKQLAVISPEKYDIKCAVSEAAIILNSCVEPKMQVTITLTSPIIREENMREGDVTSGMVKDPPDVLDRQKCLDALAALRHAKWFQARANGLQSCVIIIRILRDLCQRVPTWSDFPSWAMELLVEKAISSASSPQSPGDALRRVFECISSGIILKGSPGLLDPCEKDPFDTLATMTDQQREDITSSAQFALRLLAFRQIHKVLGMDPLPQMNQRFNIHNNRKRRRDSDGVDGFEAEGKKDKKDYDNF"}, "Ogdh": {"target": "Ogdh (UniProt Q60597)", "sequence (Q60597 41-1023 limits assumed)": "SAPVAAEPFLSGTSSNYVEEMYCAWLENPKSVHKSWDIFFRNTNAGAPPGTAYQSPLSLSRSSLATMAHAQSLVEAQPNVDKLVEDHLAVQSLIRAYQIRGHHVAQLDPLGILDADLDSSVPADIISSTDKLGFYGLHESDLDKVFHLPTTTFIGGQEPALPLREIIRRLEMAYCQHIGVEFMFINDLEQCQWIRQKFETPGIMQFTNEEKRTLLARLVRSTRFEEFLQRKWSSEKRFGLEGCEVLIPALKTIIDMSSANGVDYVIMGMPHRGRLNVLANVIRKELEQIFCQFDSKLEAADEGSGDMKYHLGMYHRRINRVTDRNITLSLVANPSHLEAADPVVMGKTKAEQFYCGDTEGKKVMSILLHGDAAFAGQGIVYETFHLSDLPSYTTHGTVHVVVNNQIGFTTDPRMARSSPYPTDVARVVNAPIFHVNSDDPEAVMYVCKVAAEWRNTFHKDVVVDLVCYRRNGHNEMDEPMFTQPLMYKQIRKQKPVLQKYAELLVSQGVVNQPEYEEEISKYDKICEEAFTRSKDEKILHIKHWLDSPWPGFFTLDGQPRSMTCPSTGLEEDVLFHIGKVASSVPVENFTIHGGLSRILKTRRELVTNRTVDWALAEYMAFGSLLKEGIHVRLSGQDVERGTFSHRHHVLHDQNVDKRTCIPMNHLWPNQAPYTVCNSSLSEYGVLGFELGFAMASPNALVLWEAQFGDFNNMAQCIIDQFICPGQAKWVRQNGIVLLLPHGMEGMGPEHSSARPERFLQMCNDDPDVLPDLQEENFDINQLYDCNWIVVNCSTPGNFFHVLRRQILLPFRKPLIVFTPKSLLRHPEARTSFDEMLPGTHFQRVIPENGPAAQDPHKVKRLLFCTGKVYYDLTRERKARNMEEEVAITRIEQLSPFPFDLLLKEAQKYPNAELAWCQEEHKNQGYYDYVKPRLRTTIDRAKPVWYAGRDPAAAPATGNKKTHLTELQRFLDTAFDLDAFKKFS"}, "Myo6": {"target": "Myo6 (UniProt Q64331)"}, "Gm10094; Sap18": {"target": "Gm10094; Sap18"}, "Ptcd3": {"target": "Ptcd3 (UniProt Q14C51)", "sequence (Q14C51 11-685 limits assumed)": "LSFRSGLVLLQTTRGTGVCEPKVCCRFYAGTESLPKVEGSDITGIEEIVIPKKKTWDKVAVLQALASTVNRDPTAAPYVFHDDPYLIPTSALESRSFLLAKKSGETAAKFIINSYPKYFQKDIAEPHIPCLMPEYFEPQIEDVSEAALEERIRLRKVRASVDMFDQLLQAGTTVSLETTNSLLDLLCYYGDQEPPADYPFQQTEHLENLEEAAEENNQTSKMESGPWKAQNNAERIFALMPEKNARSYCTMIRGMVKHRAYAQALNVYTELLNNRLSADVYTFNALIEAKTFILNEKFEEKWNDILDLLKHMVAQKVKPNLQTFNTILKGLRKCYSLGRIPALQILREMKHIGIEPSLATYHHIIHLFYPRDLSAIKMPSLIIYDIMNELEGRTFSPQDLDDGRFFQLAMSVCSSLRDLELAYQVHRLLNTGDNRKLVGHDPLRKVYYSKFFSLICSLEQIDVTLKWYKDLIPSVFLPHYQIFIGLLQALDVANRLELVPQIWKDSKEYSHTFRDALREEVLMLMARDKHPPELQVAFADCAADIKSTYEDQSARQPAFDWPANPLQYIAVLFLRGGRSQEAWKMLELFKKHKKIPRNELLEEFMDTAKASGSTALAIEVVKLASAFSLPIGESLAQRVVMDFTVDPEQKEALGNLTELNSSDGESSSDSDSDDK"}, "Rpl36a": {"target": "Rpl36a (UniProt P83882)"}, "Pno1": {"target": "Pno1 (UniProt Q9CPS7)", "sequence (Q9CPS7 whole entry)": "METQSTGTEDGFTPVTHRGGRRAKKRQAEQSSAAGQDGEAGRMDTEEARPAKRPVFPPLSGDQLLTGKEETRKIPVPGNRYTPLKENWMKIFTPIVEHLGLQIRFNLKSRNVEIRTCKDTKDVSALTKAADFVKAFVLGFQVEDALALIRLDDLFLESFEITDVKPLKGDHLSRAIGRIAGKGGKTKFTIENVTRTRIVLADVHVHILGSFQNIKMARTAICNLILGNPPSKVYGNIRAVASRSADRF"}, "Dap3": {"target": "Dap3 (UniProt Q9ER88)", "sequence (Q9ER88 18-391 limits assumed)": "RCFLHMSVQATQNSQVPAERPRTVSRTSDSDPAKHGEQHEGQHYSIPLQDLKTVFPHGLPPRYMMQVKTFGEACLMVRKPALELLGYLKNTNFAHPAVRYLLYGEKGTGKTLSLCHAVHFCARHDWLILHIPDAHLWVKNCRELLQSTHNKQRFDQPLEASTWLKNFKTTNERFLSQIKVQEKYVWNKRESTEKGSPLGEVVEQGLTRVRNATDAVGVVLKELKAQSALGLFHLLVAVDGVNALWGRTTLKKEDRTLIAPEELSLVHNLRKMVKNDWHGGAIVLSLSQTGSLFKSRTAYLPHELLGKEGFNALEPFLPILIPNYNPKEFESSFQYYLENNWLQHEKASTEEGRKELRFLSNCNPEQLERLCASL"}, "Metap2": {"target": "Metap2 (UniProt O08663)"}, "Mars": {"target": "Mars (UniProt Q68FL6)"}}}
{"substance": "TOX (from UniProt Q66JW3 1-526)", "values": [{"measurement": "Abundance", "setting": "Sltm", "result": "2.12e-06"}, {"measurement": "MiST Score", "setting": "Sltm", "result": 0.864}, {"measurement": "Reproducibility", "setting": "Sltm", "result": 0.988}, {"measurement": "Specificity", "setting": "Sltm", "result": 0.816}, {"measurement": "Abundance", "setting": "Wdhd1", "result": "1.64e-06"}, {"measurement": "MiST Score", "setting": "Wdhd1", "result": 0.877}, {"measurement": "Reproducibility", "setting": "Wdhd1", "result": 0.619}, {"measurement": "Specificity", "setting": "Wdhd1", "result": 1}, {"measurement": "Abundance", "setting": "Trip12", "result": "1.4e-06"}, {"measurement": "MiST Score", "setting": "Trip12", "result": 0.866}, {"measurement": "Reproducibility", "setting": "Trip12", "result": 0.585}, {"measurement": "Specificity", "setting": "Trip12", "result": 1}, {"measurement": "Abundance", "setting": "Eif5b", "result": "7.46e-06"}, {"measurement": "MiST Score", "setting": "Eif5b", "result": 0.878}, {"measurement": "Reproducibility", "setting": "Eif5b", "result": 0.771}, {"measurement": "Specificity", "setting": "Eif5b", "result": 0.933}, {"measurement": "Abundance", "setting": "Terf2ip", "result": "2.33e-05"}, {"measurement": "MiST Score", "setting": "Terf2ip", "result": 0.869}, {"measurement": "Reproducibility", "setting": "Terf2ip", "result": 0.595}, {"measurement": "Specificity", "setting": "Terf2ip", "result": 1}, {"measurement": "Abundance", "setting": "Tsr1", "result": "5.3e-06"}, {"measurement": "MiST Score", "setting": "Tsr1", "result": 0.862}, {"measurement": "Reproducibility", "setting": "Tsr1", "result": 0.962}, {"measurement": "Specificity", "setting": "Tsr1", "result": 0.824}, {"measurement": "Abundance", "setting": "Larp7", "result": "9.12e-06"}, {"measurement": "MiST Score", "setting": "Larp7", "result": 0.859}, {"measurement": "Reproducibility", "setting": "Larp7", "result": 0.896}, {"measurement": "Specificity", "setting": "Larp7", "result": 0.849}, {"measurement": "Abundance", "setting": "Zfr", "result": "2.44e-06"}, {"measurement": "MiST Score", "setting": "Zfr", "result": 0.866}, {"measurement": "Reproducibility", "setting": "Zfr", "result": 0.991}, {"measurement": "Specificity", "setting": "Zfr", "result": 0.817}, {"measurement": "Abundance", "setting": "Ogdh", "result": "1.34e-05"}, {"measurement": "MiST Score", "setting": "Ogdh", "result": 0.88}, {"measurement": "Reproducibility", "setting": "Ogdh", "result": 0.851}, {"measurement": "Specificity", "setting": "Ogdh", "result": 0.902}, {"measurement": "Abundance", "setting": "Myo6", "result": "5.25e-07"}, {"measurement": "MiST Score", "setting": "Myo6", "result": 0.88}, {"measurement": "Reproducibility", "setting": "Myo6", "result": 0.63}, {"measurement": "Specificity", "setting": "Myo6", "result": 1}, {"measurement": "Abundance", "setting": "Gm10094; Sap18", "result": "2.26e-05"}, {"measurement": "MiST Score", "setting": "Gm10094; Sap18", "result": 0.878}, {"measurement": "Reproducibility", "setting": "Gm10094; Sap18", "result": 0.625}, {"measurement": "Specificity", "setting": "Gm10094; Sap18", "result": 1}, {"measurement": "Abundance", "setting": "Ptcd3", "result": "1.85e-06"}, {"measurement": "MiST Score", "setting": "Ptcd3", "result": 0.88}, {"measurement": "Reproducibility", "setting": "Ptcd3", "result": 0.631}, {"measurement": "Specificity", "setting": "Ptcd3", "result": 1}, {"measurement": "Abundance", "setting": "Rpl36a", "result": 0.000923}, {"measurement": "MiST Score", "setting": "Rpl36a", "result": 0.895}, {"measurement": "Reproducibility", "setting": "Rpl36a", "result": 0.679}, {"measurement": "Specificity", "setting": "Rpl36a", "result": 1}, {"measurement": "Abundance", "setting": "Pno1", "result": 0.000116}, {"measurement": "MiST Score", "setting": "Pno1", "result": 0.884}, {"measurement": "Reproducibility", "setting": "Pno1", "result": 0.988}, {"measurement": "Specificity", "setting": "Pno1", "result": 0.845}, {"measurement": "Abundance", "setting": "Dap3", "result": "2.69e-06"}, {"measurement": "MiST Score", "setting": "Dap3", "result": 0.859}, {"measurement": "Reproducibility", "setting": "Dap3", "result": 0.561}, {"measurement": "Specificity", "setting": "Dap3", "result": 1}, {"measurement": "Abundance", "setting": "Metap2", "result": "1.54e-05"}, {"measurement": "MiST Score", "setting": "Metap2", "result": 0.881}, {"measurement": "Reproducibility", "setting": "Metap2", "result": 0.927}, {"measurement": "Specificity", "setting": "Metap2", "result": 0.868}, {"measurement": "Abundance", "setting": "Mars", "result": "3.23e-07"}, {"measurement": "MiST Score", "setting": "Mars", "result": 0.877}, {"measurement": "Reproducibility", "setting": "Mars", "result": 0.619}, {"measurement": "Specificity", "setting": "Mars", "result": 1}]}
